This is an account of results in PMC2572727, “The GET Complex Mediates Insertion of Tail-Anchored Proteins into the ER Membrane” (Cell, 2008).

The target in this assay is T1, purified Get1-PC and Get2-HA reconstituted in proteoliposomes (yeast, UniProt P53192 1-235; P40056 1-285).
T1 construct: Get1 (Mdm39), yeast; construct details in the Supplemental Data; Get2 (Rmd7, Hur2), yeast; also called +Get1/+Get2; Get1/Get2 complex; source: copurified from yeast, reconstituted into proteoliposomes
T1 sequence (looked up) 1: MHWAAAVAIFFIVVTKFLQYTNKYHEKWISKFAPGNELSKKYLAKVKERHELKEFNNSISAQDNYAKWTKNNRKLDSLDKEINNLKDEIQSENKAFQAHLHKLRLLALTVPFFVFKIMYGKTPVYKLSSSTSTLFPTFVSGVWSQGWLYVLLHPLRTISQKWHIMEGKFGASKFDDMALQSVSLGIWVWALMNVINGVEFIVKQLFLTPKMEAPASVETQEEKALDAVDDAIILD
T1 sequence (looked up) 2: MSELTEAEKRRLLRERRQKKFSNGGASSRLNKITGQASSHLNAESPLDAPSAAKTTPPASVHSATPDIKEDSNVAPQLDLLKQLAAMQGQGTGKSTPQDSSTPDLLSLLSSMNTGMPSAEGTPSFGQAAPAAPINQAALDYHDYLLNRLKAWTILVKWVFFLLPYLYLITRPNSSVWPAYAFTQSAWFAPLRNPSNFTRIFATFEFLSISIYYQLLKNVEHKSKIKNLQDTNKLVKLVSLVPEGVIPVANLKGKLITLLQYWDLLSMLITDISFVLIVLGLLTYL
In words: co-sedimentation; recombinant Get3 incubated with proteoliposomes reconstituted with purified Get1-PC and Get2-HA or with Phs1 as control; Optiprep gradient fractions blotted with αGet3 or αPhs1. To be noted: both partners purified.

B1: recombinant Get3 ATPase (enzyme, yeast, UniProt Q12154 1-354, looked up)
chain: MDLTVEPNLHSLITSTTHKWIFVGGKGGVGKTTSSCSIAIQMALSQPNKQFLLISTDPAHNLSDAFGEKFGKDARKVTGMNNLSCMEIDPSAALKDMNDMAVSRANNNGSDGQGDDLGSLLQGGALADLTGSIPGIDEALSFMEVMKHIKRQEQGEGETFDTVIFDTAPTGHTLRFLQLPNTLSKLLEKFGEITNKLGPMLNSFMGAGNVDISGKLNELKANVETIRQQFTDPDLTTFVCVCISEFLSLYETERLIQELISYDMDVNSIIVNQLLFAENDQEHNCKRCQARWKMQKKYLDQIDELYEDFHVVKMPLCAGEIRGLNNLTKFSQFLNKEYNPITDGKVIYELEDKE
notes: Get3 (Arr4), yeast homolog of Asna1/TRC40, soluble cytosolic ATPase; also called Arr4; source: purified from Escherichia coli (Metz et al., 2006)
For the molecule B1, the binding result is recorded as “binds”.
